Test results reported in US7541446B2, “Tet repressor-based transcriptional regulatory proteins” (Tet Systems Holding GmbH & Co. KG, priority 1999, dated 2009).

What was measured:
[1] = tested on: luciferase activity; assay: Doxycycline-dependent regulation of luciferase in HeLa cells, transient transfection of rtTA2-34R^S or rtTA2; format: cell-based
Source text: The synthetic gene encoding rtTA2-34R^S was cloned into pUHD15-1 and expression was examined in HeLa cells.

[2] = tested on: tetO DNA; assay: DNA retardation experiment with radioactively labeled tetO DNA; format: binding; conditions: produced in HeLa cells; compared with rtTA2
Source text: Cellular material from cells transfected as described above was also used to compare the binding of rtTA2-34R and rtTA2 (rtTA fused to 3 minimal activation domains) to operator DNA in DNA retardation experiments.
rtTA2 and rtTA2-34R^S were produced in HeLa cells and exposed to radioactively labeled tetO DNA in presence (+) and absence (−) of Dox.

B1: rtTA2-34R^S: first 206 amino acids of rtTA-34R fused to 3 minimal VP-16 activation domains (FFF), synthetic gene with human codon frequencies, SEQ ID NO: 5 (protein)
chain: MSRLDKSKVINSALELLNGVGIEGLTTRKLAQKLGVEQPTLYWHVKNKRALLDALPIEMLDRHHTHFCPLEGESWQDFLRNNAKSFRCALLSHRDGAKVHLGTRPTEKQYETLENQLAFLCQQGFSLENALYALSAVGHFTLGCVLEEQEHQVAKEERETPTTDSMPPLLRQAIELFDRQGAEPAFLFGLELIICGLEKQLKCESGGPADALDDFDLDMLPADALDDFDLDMLPADALDDFDLDMLPG
- induction in cells treated with Dox [1]: up to 20 fold
- luciferase activity in relative light units, + Dox ([1]; + Dox): 20.325
- luciferase activity in relative light units, − Dox ([1]; − Dox): 1
- residual binding to operator DNA (binding in the absence of Dox) [2]: greatly reduced
